Seven molecules from patent EP4813396A2 (Amphivena Therapeutics, Inc., dated 2026) can be followed below.

Sequences and labels used below:
B1: CD33/CD3 tandem diabody 13 (bispecific antibody)
chain: DIQMTQSPSSLSASVGDRVTITCRSSTGAVTTSNYANWVQQKPGKAPKGLIGGTNKRAPGVPSRFSGSLIGTDFTLTISSLQPEDFATYYCALWYSNLWVFGQGTKVEIKGGSGGSQVQLVQSGAEVKKPGASVKVSCKASGYTFTSYDINWVRQAPGQGLEWMGWMNPNSGNTGFAQKFQGRVTMTRDTSTSTVYMELSSLRSEDTAVYYCARDRAVTDYYYGMDVWGQGTLVTVSSGGSGQSVLTQPPSASGTPGQRVTISCSGSRSNIGSNTVNWYQQLPGTAPKLLIYGNNQRPSGVPDRFSGSKSGTSASLAISGLQSEDEADYYCATWDDSLIGWVFGGGTKLTVLGGSGGSEVQLVESGGGLVQPGGSLRLSCAASGFTFSTYAMNWVRQAPGKGLEWVGRIRSKYNNYATYYADSVKDRFTISRDDSKNSLYLQMNSLKTEDTAVYYCARHGNFGNSYVSWFAYWGQGTLVTVSS
notes: Non-covalent homodimer; domain order 1; also called TandAb 13
B2: CD33/CD3 tandem diabody 23 (bispecific antibody)
chain: DIQMTQSPSSLSASVGDRVTITCRSSTGAVTTSNYANWVQQKPGKAPKGLIGGTNKRAPGVPSRFSGSLIGTDFTLTISSLQPEDFATYYCALWYSNLWVFGQGTKVEIKGGSGGSQVQLVQSGAEVKKPGSSVKVSCKASGGTFSSYGISWVRQAPGQGLEWMGGIIPIFGSAHYAQKFQGRVTITADESTSTAYMELSSLRSEDTAVYYCAREYYYDSSEWAFDIWGQGTLVTVSSGGSGQSVLTQPPSASGTPGQRVTISCSGSSSNIGSNTVKWYQQLPGTAPKLLIYSNNQRSSGVPDRFSGSKSGSSASLAISGLQSEDEADYYCAAWDDSLNGYVFGGGTKLTVLGGSGGSEVQLVESGGGLVQPGGSLRLSCAASGFTFSTYAMNWVRQAPGKGLEWVGRIRSKYNNYATYYADSVKDRFTISRDDSKNSLYLQMNSLKTEDTAVYYCARHGNFGNSYVSWFAYWGQGTLVTVSS
notes: Non-covalent homodimer; domain order 1; also called TandAb 23
B3: CD33/CD3 tandem diabody 05 (bispecific antibody)
chain: DIQMTQSPSSLSASVGDRVTITCRSSTGAVTTSNYANWVQQKPGKAPKGLIGGTNKRAPGVPARFSGSGSGTDFTLTISSLQPEDFATYYCALWYSNLWVFGQGTKVEIKGGSGGSQVQLVQSGAEVKKPGASVKVSCKASGYTFTSYDINWVRQAPGQGLEWMGWMNPNSGNTGFAQKFQGRVTMTRDTSTSTVYMELSSLRSEDTAVYYCARDRANTDYSFGMDVWGQGTLVTVSSGGSGGQSVLTQPPSASGTPGQRVTISCSGSRSNIGSNTVNWYQQLPGTAPKLLIYGNNQRPSGVPDRFSGSKSGTSASLAISGLQSEDEADYYCATWDDSLIGWVFGGGTKLTVLGGSGGSEVQLVESGGGLVQPGGSLRLSCAASGFTFSTYAMNWVRQAPGKGLEWVGRIRSKYNNYATYYADSVKDRFTISRDDSKNSLYLQMNSLKTEDTAVYYCARHGNFGNSYVSWFAYWGQGTLVTVSSAAAGSHHHHHH
notes: Non-covalent homodimer; domain order 1; also called TandAb 05; tandem diabody 5
B4: CD33/CD3 tandem diabody 06 (bispecific antibody)
chain: B3 chain with F223L
notes: Non-covalent homodimer; domain order 1; also called TandAb 06; tandem diabody 6
B5: CD33/CD3 tandem diabody 07 (bispecific antibody)
chain: DIQMTQSPSSLSASVGDRVTITCRSSTGAVTTSNYANWVQQKPGKAPKALIGGTNKRAPGVPSRFSGSLIGDKATLTISSLQPEDFATYYCALWYSNLWVFGQGTKVEIKGGSGGSQVQLQESGGGVVQPGRSLRLSCAASGFSFSNYGIHWVRQAPGKGLEWVALISYDGNKKFYADSVKGRFAISRDTSKNTVDLQMTSLRPEDTAVYYCAKDRLESAAFDYWGQGTLVTVSSGGSGGSSYELTQPPSVSVAPGQTAMITCGGNNIGSTTVHWYQQKPGQAPVLVVYDDNERPSGIPERFSGSNSGSTATLTINRVEAGDEADYYCQVWDSGSDHVVFGGGTKLTVLGGSGGSEVQLVESGGGLVQPGGSLRLSCAASGFTFSTYAMNWVRQAPGKGLEWVGRIRSKYNNYATYYADSVKDRFTISRDDSKNSLYLQMNSLKTEDTAVYYCARHGNFGNSYVSYFAYWGQGTLVTVSSAAAGSHHHHHH
notes: Non-covalent homodimer; domain order 1; also called TandAb 07; tandem diabody 7
B6: CD33/CD3 tandem diabody 14 (bispecific antibody)
chain: DIQMTQSPSSLSASVGDRVTITCRSSTGAVTTSNYANWVQQKPGKAPKALIGGTNKRAPGVPSRFSGSLIGDKATLTISSLQPEDFATYYCALWYSNLWVFGQGTKVEIKGGSGGSQVQLVQSGAEVKKPGASVKVSCKASGYTFTSYDINWVRQAPGQGLEWMGWMNPNSGNTGFAQKFQGRVTMTRDTSTSTVYMELSSLRSEDTAVYYCARDRANTDFSYGMDVWGQGTLVTVSSGGSGQSVLTQPPSASGTPGQRVTISCSGSRSNIGSNTVNWYQQLPGTAPKLLIYGNNQRPSGVPDRFSGSKSGSSASLAISGLQSEDEADYYCATWDDSLIGWVFGGGTKLTVLGGSGGSEVQLVESGGGLVQPGGSLRLSCAASGFTFSTYAMNWVRQAPGKGLEWVGRIRSKYNNYATYYADSVKDRFTISRDDSKNSLYLQMNSLKTEDTAVYYCARHGNFGNSYVSYFAYWGQGTLVTVSSAAAGSHHHHHH
notes: Non-covalent homodimer; domain order 1; also called TandAb 14
B7: CD33/CD3 tandem diabody 17 (bispecific antibody)
chain: DIQMTQSPSSLSASVGDRVTITCRSSTGAVTTSNYANWVQQKPGKAPKALIGGTNKRAPGVPSRFSGSLIGDKATLTISSLQPEDFATYYCALWYSNLWVFGQGTKVEIKGGSGGSQVQLVQSGAEVKKPGESLKISCKGSGYSFTSYWIGWVRQMPGKGLEWMGIIYPGDSDTRYSPSFQGQVTISADKSISTAYLQWSSLKASDTAMYYCARHKRGSDAFDIWGQGTTVTVSSGGSGQSVLTQPPSVSGAPGQRVTISCTGSSSNIGAGYDVHWYQQLPGTAPKLLIYGNSNRPSGVPDRFSGSKSGTSASLAITGLQAEDEADYYCQSYDSSLSDVVFGGGTKLTVLGGSGGSEVQLVESGGGLVQPGGSLRLSCAASGFTFSTYAMNWVRQAPGKGLEWVGRIRSKYNNYATYYADSVKDRFTISRDDSKNSLYLQMNSLKTEDTAVYYCARHGNFGNSYVSYFAYWGQGTLVTVSSAAAGSHHHHHH
notes: Non-covalent homodimer; domain order 1; also called TandAb 17

Numbering of substitutions follows the chain as printed. Several values for one entry are separate records, joined by “and”; a condition that tells them apart may be missing. Identical values can stand only once.

T2 sequence (P07766 23-207): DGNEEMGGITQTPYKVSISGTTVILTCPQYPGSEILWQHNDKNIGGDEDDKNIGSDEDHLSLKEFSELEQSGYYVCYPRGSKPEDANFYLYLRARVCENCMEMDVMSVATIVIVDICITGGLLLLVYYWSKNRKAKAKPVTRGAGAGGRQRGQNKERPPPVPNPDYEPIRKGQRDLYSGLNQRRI

For the first test, the target named is T1, human CD33 on cells (human, UniProt P20138 18-364). The test can be described thus: cell-based or functional assay.
T1 sequence (P20138 18-364): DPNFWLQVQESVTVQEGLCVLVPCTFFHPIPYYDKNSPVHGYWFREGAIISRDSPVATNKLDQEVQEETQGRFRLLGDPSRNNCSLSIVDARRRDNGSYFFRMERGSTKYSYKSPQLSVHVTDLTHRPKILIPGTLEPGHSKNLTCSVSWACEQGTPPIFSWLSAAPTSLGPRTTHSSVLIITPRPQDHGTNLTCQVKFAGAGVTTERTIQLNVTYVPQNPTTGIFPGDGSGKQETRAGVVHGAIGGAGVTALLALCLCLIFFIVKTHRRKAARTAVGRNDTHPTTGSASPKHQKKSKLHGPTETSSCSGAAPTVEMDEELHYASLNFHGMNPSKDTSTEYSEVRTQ
Consider B1, for which the “EC50 on HL-60 [pM] (cytotoxicity)” value is 1.1 pM.
Take B2: the “EC50 on HL-60 [pM] (cytotoxicity)” value worked out at 2.8 pM.
The same measure, in the same setting: as for B3, the figure is 2.7 pM.
The same measure, in the same setting: as for B4, the figure is 1.6 pM; as for B5, 17.8 pM.
On the same count and under the same terms, for B6 the value was 1.6 pM.
Consider B7, for which the “EC50 on HL-60 [pM] (cytotoxicity)” value was 18.4 pM.

The next test concerns the target T1, human CD33 on cells. The test can be described thus: cell-based or functional assay. The source holds these as a separate data set.
Consider B6, for which the “EC50 [pM (pg/mL)] on human CD33+ target cell lines: HL-60 (cytotoxicity, E:T 5:1, 20-24 h)” value is 1.6 pM and 168 pg/mL; the “EC50 [pM (pg/mL)] on human CD33+ target cell lines: KG-1 (cytotoxicity, E:T 5:1, 20-24 h)” value was 2.6 pM and 273 pg/mL; the “EC50 [pM (pg/mL)] on human CD33+ target cell lines: U-937 (cytotoxicity, E:T 5:1, 20-24 h)” value was 3.6 pM and 378 pg/mL; the “EC50 [pM (pg/mL)] on human CD33+ target cell lines: mean of HL-60, U-937, KG-1” value was 2.6 pM and 273 pg/mL.

Another test concerns the target T2, human CD3 on T cells (human, UniProt P07766 23-207). The test can be described thus: cell-based or functional assay.
Regarding B1, the “CD25 Induction EC50 (pM)” value turned out to be 30 pM, the “CD69 Induction EC50 (pM)” value is 22 pM and the “T cell Proliferation in PBMC EC50 (pM)” value was 23 pM.
In the same order, the values of B2 are 41 pM, 17 pM and 37 pM.
In the same order, the values of B3 are 116 pM, 74 pM and 74 pM.
For B4 the same measures were 39 pM, 21 pM and 48 pM.
On to B5, for which the “CD25 Induction EC50 (pM)” value turned out to be 134 pM, the “CD69 Induction EC50 (pM)” value was determined as 65 pM and the “T cell Proliferation in PBMC EC50 (pM)” value came to 50 pM.
Turning to B6, the “CD25 Induction EC50 (pM)” value turned out to be 10 pM, the “CD69 Induction EC50 (pM)” value amounted to 7 pM and the “T cell Proliferation in PBMC EC50 (pM)” value is 6 pM.
In the same order, the values of B7 are 30 pM, 114 pM and 30 pM.

The target in another test is T1, human CD33 on cells. The test can be described thus: flow cytometry, HL-60 cells. A general note: In flow cytometry, cells or beads pass a laser one at a time.
For orientation: Kd means the constant that tells how readily two partners part at equilibrium. A lower Kd goes with a tighter complex. In turn, B1 showed a Kd of 0.2 nM.
Still for that read-out and setting: as for B2, the figure is 0.4 nM; as for B3, 1 nM.
Consider B4, for which the Kd worked out at 0.4 nM.
B5: binding was put at a Kd of 13.7 nM.
On the same count and under the same terms, as for B6, the figure is 0.3 nM.
Same read-out and setting: as for B7, the figure is 5 nM.

In a further test the target is T1, human CD33 on cells. The test can be described thus: flow cytometry, titration on KG-1 cells.
In turn, B1 registered a Kd of 0.3 nM.
The molecule B2 returned an equilibrium dissociation constant (Kd) of 1 nM.
Still for that read-out and setting: for B3 the value was 1.2 nM; for B4, 0.5 nM; for B5, 47.9 nM.
Still for that read-out and setting: as for B6, the figure is 0.3 nM.
Still for that read-out and setting: as for B7, the figure is 52.5 nM.

The target in the next test is T1, human CD33 on cells. The test can be described thus: flow cytometry, titration on HL-60 cells.
In the case of B1, binding was characterised by a dissociation constant (Kd) of 0.2 nM.
The same measure, in the same setting: as for B2, the figure is 0.4 nM; as for B3, 1 nM; as for B4, 0.4 nM.
The same measure, in the same setting: for B5 the value was 13.7 nM.
Still for that read-out and setting: as for B6, the figure is 0.3 nM.
B7 came in with a Kd of 5 nM.

The target in a further test is T1, human CD33 on cells. The test can be described thus: flow cytometry, titration on U-937 cells.
In turn, B1 returned a Kd of 0.5 nM.
With B2, the Kd turned out to be 5.1 nM.
The same measure, in the same setting: for B3 the value was 6.2 nM; for B4, 1.6 nM; for B5, 47.1 nM.
The same measure, in the same setting: for B6 the value was 1.2 nM; for B7, 24.4 nM.

The target of another test is T2, human CD3 on T cells. The test can be described thus: flow cytometry, human T-cells (as headed in Table 10).
In the case of B1, the Kd was determined as 55.7 nM.
On to B2, for which binding was characterised by a dissociation constant (Kd) of 97.2 nM.
The same measure, in the same setting: for B3 the value was 69.5 nM; for B4, 86.3 nM; for B5, 49.7 nM.
The same measure, in the same setting: as for B6, the figure is 2.1 nM; as for B7, 3.3 nM.

For the next test, the target named is T2, human CD3 on T cells. The test can be described thus: flow cytometry, titration on human CD3+ T cells (Jurkat per paragraph 124/paragraph 125).
For B1, binding was characterised by a dissociation constant (Kd) of 55.7 nM.
Same read-out and setting: as for B2, the figure is 97.2 nM; as for B3, 69.5 nM; as for B4, 86.3 nM.
Take B5: binding was characterised by a dissociation constant (Kd) of 49.7 nM.
On the same count and under the same terms, as for B6, the figure is 2.1 nM; as for B7, 3.3 nM.

The target of a further test is cynomolgus CD33 on CHO cells (cynomolgus monkey). The test can be described thus: flow cytometry; KD on CHO-cynomolgus CD33 cells divided by KD on CHO-human CD33 cells.
With B1, the KD ratio cynoCD33/ huCD33 was 1.6.
The same measure, in the same setting: as for B2, the figure is 1.9; as for B3, 0.8; as for B4, 0.8.
Same read-out and setting: as for B5, the figure is 45.8; as for B6, 1; as for B7, 1.9.
